Assays:
Assay in all cases: holdup assay
Set-up in all cases: key: below the threshold = too weak to quantify, mostly under pKd 3.1 to 4
[1] = biological target: T1, MPDZ_10, O75970
T1 sequence (O75970 1624-1722, limits assumed, looked up): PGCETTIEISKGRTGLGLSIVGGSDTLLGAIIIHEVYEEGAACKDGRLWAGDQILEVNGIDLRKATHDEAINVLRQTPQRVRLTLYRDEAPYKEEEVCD

[2] = biological target: GIPC2, Q8TF65
[3] = biological target: Inadl_8, Q8NI35
[4] = biological target: T2, GRIP1_5, Q9Y3R0
T2 sequence (Q9Y3R0 568-668, limits assumed, looked up): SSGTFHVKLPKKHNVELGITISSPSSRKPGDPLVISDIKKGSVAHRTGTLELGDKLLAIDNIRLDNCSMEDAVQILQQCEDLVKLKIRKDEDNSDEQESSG

[5] = biological target: T3, LIN7B, Q9HAP6
T3 sequence (Q9HAP6 88-185, limits assumed, looked up): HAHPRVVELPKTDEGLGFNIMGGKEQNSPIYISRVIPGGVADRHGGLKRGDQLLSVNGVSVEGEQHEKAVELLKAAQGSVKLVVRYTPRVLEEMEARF

[6] = biological target: Inadl_6, Q8NI35
Sequence of Inadl_6, Q8NI35 (Q8NI35 1058-1167): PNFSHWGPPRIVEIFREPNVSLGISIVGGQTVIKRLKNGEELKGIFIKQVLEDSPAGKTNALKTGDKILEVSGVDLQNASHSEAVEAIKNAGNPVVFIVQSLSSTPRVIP

[7] = biological target: T4, GRIP1_4, Q9Y3R0
T4 sequence (Q9Y3R0 467-571, limits assumed, looked up): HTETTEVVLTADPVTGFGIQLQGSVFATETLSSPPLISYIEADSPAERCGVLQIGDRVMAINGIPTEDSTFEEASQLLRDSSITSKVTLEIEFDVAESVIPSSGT

[8] = biological target: DLG1_2, Q12959
Sequence of DLG1_2, Q12959 (Q12959 314-412): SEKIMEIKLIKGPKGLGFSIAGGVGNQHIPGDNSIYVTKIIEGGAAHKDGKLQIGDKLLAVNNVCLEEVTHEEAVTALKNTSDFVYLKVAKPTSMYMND

[9] = biological target: T5, LIN7A, O14910
T5 sequence (O14910 103-200, limits assumed, looked up): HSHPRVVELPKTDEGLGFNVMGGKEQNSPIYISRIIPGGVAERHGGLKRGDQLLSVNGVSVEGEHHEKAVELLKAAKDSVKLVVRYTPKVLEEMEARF

[10] = biological target: GRIP2_7, Q9C0E4
Sequence of GRIP2_7, Q9C0E4 (Q9C0E4 934-1023): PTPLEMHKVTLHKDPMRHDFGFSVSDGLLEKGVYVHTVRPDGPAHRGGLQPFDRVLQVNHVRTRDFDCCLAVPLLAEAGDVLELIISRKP

[11] = biological target: T6, APBA3_1, O96018
T6 sequence (O96018 389-490, limits assumed, looked up): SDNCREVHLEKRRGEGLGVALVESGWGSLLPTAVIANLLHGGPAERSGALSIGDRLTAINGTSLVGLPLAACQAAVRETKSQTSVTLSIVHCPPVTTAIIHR

[12] = biological target: FRMPD2_3, Q68DX3
Sequence of FRMPD2_3, Q68DX3 (Q68DX3 1073-1166): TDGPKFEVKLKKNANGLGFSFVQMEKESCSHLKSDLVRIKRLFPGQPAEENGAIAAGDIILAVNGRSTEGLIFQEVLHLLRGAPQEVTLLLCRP

[13] = biological target: MAGI2_6, Q86UL8
Sequence of MAGI2_6, Q86UL8 (Q86UL8 1141-1229): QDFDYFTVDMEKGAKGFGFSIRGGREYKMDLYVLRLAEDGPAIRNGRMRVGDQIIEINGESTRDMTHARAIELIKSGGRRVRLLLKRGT

[14] = biological target: MAGI1_1, Q96QZ7
Sequence of MAGI1_1, Q96QZ7 (Q96QZ7 1-106): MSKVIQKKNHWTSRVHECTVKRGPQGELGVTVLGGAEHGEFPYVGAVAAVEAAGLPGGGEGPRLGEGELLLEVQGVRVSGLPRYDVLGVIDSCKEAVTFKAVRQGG

[15] = biological target: T7, CARD11, Q9BXL7
T7 sequence (Q9BXL7 662-765, limits assumed, looked up): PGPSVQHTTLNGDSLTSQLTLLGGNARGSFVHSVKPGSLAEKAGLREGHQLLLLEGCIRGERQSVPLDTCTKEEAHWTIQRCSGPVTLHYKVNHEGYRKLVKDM

[16] = biological target: MAGI2_2, Q86UL8
Sequence of MAGI2_2, Q86UL8 (Q86UL8 410-522): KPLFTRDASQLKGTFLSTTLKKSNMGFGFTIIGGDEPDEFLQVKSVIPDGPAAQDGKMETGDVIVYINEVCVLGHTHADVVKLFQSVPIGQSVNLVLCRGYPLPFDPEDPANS

[17] = biological target: TJP2_1, Q9UDY2
Sequence of TJP2_1, Q9UDY2 (Q9UDY2 24-128): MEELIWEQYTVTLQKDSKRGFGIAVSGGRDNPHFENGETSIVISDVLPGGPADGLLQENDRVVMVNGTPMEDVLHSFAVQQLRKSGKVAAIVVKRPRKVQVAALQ

[18] = biological target: NHERF4_2, Q86UT5
Sequence of NHERF4_2, Q86UT5 (Q86UT5 220-308): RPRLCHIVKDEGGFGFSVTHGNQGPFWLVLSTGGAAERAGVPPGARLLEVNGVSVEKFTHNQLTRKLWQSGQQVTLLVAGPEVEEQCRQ

[19] = biological target: LNX1_2, Q8TBB1
Sequence of LNX1_2, Q8TBB1 (Q8TBB1 371-470): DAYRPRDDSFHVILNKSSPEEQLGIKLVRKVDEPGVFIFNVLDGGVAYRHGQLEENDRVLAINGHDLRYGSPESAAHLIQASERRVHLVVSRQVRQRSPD

[20] = biological target: GRIP2_6, Q9C0E4
Sequence of GRIP2_6, Q9C0E4 (Q9C0E4 648-740): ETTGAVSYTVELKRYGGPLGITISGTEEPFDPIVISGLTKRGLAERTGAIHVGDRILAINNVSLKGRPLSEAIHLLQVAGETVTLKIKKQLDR

[21] = biological target: T8, GRIP1_2, Q9Y3R0
T8 sequence (Q9Y3R0 145-248, limits assumed, looked up): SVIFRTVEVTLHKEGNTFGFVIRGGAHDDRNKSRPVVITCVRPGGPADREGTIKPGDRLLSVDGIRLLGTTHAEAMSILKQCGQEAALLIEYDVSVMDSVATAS

[22] = biological target: T9, PARD3B_1, Q8TEW8
T9 sequence (Q8TEW8 196-299, limits assumed, looked up): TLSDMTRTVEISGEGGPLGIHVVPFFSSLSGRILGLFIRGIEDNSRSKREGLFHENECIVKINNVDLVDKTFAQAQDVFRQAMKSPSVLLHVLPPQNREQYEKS

[23] = biological target: DLG2_2, Q15700
Sequence of DLG2_2, Q15700 (Q15700 189-283): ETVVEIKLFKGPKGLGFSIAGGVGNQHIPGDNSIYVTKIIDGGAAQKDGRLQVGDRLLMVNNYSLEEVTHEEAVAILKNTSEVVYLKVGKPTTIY

[24] = biological target: T10, MPP7, Q5T2T1
T10 sequence (Q5T2T1 134-230, limits assumed, looked up): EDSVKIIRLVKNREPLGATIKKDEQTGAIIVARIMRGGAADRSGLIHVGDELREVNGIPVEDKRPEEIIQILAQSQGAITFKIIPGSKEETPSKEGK

[25] = biological target: T11, MPDZ_5, O75970
T11 sequence (O75970 695-796, limits assumed, looked up): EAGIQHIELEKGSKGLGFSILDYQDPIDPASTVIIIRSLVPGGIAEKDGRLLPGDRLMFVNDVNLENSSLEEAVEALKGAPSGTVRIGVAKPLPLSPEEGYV

[26] = plain residues with an end cap or a label only (N-terminal biotin on a linker: ado-ado)
[27] = plain residues with an end cap or a label only (N-terminal biotin on a linker: ttds)
[28] = plain residues with an end cap or a label only (N-terminal biotin on a linker: ado-ado, ttds)
[29] = plain residues with an end cap or a label only (N-terminal biotin on a linker: ahx)

Sequence of Inadl_8, Q8NI35 (Q8NI35 1425-1530): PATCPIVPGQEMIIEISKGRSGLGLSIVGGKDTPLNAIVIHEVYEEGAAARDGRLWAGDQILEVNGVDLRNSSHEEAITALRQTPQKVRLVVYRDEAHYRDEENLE
Sequence of GIPC2, Q8TF65 (Q8TF65 112-203): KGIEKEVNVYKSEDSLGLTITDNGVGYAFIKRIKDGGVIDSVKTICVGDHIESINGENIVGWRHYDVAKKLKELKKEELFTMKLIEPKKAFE

ELKAEDEVQI [DCHS2, Q6V1P9]
pKd [1, 26]: below the threshold | pKd [2, 26]: below the threshold | pKd [3, 26]: below the threshold | pKd [4, 26]: below the threshold | pKd [5, 26]: 3.48 | pKd [6, 26]: below the threshold | pKd [7, 26]: below the threshold | pKd [8, 26]: below the threshold | pKd [9, 26]: below the threshold | pKd [10, 26]: below the threshold | pKd [11, 26]: below the threshold | pKd [12, 26]: below the threshold | pKd [13, 26]: below the threshold | pKd [14, 26]: below the threshold | pKd [15, 26]: below the threshold | pKd [16, 26]: below the threshold | pKd [17, 26]: below the threshold | pKd [18, 26]: below the threshold | pKd [19, 26]: below the threshold | pKd [20, 26]: below the threshold | pKd [21, 26]: below the threshold | pKd [22, 26]: 3.89 | pKd [23, 26]: below the threshold | pKd [24, 26]: 4 | pKd [25, 26]: below the threshold

SSIDLWETAL [SLC15A5, A6NIM6]
pKd [1, 27]: below the threshold | pKd [2, 27]: 4.04 | pKd [3, 27]: below the threshold | pKd [4, 27]: below the threshold | pKd [5, 27]: 4.92 | pKd [6, 27]: 5.69 | pKd [7, 27]: below the threshold | pKd [8, 27]: 4.4 | pKd [9, 27]: 4.27 | pKd [10, 27]: below the threshold | pKd [11, 27]: below the threshold | pKd [12, 27]: below the threshold | pKd [13, 27]: 5.08 | pKd [14, 27]: below the threshold | pKd [15, 27]: below the threshold | pKd [16, 27]: 4.33 | pKd [17, 27]: below the threshold | pKd [18, 27]: below the threshold | pKd [19, 27]: below the threshold | pKd [20, 27]: below the threshold | pKd [21, 27]: below the threshold | pKd [22, 27]: 4.49 | pKd [23, 27]: 3.88 | pKd [24, 27]: 3.81 | pKd [25, 27]: below the threshold

SNAKAVETDV [KCNA4, P22459]
pKd [1, 28]: below the threshold | pKd [2, 28]: below the threshold | pKd [3, 28]: below the threshold | pKd [4, 28]: below the threshold | pKd [5, 28]: below the threshold | pKd [6, 28]: below the threshold | pKd [7, 28]: below the threshold | pKd [8, 28]: 5.42 | pKd [9, 28]: below the threshold | pKd [10, 28]: below the threshold | pKd [11, 28]: below the threshold | pKd [12, 28]: below the threshold | pKd [13, 28]: 4.35 | pKd [14, 28]: below the threshold | pKd [15, 28]: 3.55 | pKd [16, 28]: below the threshold | pKd [17, 28]: below the threshold | pKd [18, 28]: below the threshold | pKd [19, 28]: below the threshold | pKd [20, 28]: below the threshold | pKd [21, 28]: below the threshold | pKd [22, 28]: below the threshold | pKd [23, 28]: 5 | pKd [24, 28]: below the threshold | pKd [25, 28]: below the threshold

SKKNELFSNL [NHERF1, O14745]
pKd [1, 29]: below the threshold | pKd [2, 29]: below the threshold | pKd [3, 29]: below the threshold | pKd [4, 29]: below the threshold | pKd [5, 29]: below the threshold | pKd [6, 29]: below the threshold | pKd [7, 29]: below the threshold | pKd [8, 29]: below the threshold | pKd [9, 29]: below the threshold | pKd [10, 29]: below the threshold | pKd [11, 29]: below the threshold | pKd [12, 29]: below the threshold | pKd [13, 29]: below the threshold | pKd [14, 29]: below the threshold | pKd [15, 29]: below the threshold | pKd [16, 29]: below the threshold | pKd [17, 29]: below the threshold | pKd [18, 29]: below the threshold | pKd [19, 29]: below the threshold | pKd [20, 29]: below the threshold | pKd [21, 29]: below the threshold | pKd [22, 29]: below the threshold | pKd [23, 29]: below the threshold | pKd [24, 29]: below the threshold | pKd [25, 29]: below the threshold

PPRQRSETQV [HPV82-E6, Q9IR59]
pKd [1, 27]: below the threshold | pKd [2, 27]: below the threshold | pKd [3, 27]: below the threshold | pKd [4, 27]: below the threshold | pKd [5, 27]: below the threshold | pKd [6, 27]: below the threshold | pKd [7, 27]: below the threshold | pKd [8, 27]: 5.02 | pKd [9, 27]: below the threshold | pKd [10, 27]: below the threshold | pKd [11, 27]: below the threshold | pKd [12, 27]: below the threshold | pKd [13, 27]: 3.46 | pKd [14, 27]: below the threshold | pKd [15, 27]: below the threshold | pKd [16, 27]: 5.89 | pKd [17, 27]: 3.44 | pKd [18, 27]: below the threshold | pKd [19, 27]: below the threshold | pKd [20, 27]: below the threshold | pKd [21, 27]: below the threshold | pKd [22, 27]: below the threshold | pKd [23, 27]: 4.79 | pKd [24, 27]: below the threshold | pKd [25, 27]: below the threshold
